These are literature values, as cited in paper PMC2288786 (BMC Structural Biology, 2008).

The target in this data set is CaM. The conditions noted are these: previously observed for full-length MBP; ref [18],[21]. The text has this: Background The myelin sheath is a multilamellar membrane structure wrapped around the axon, enabling the saltatory conduction of nerve impulses in vertebrates. […] In this study, we focus on a 19-mer synthetic peptide from the predicted calmodulin-binding segment near the C-terminus of human myelin basic protein. […] The binding of the ...

B1: full-length myelin basic protein: full-length myelin basic protein of earlier studies (protein, UniProt P02686 1-304, looked up)
chain: MGNHAGKRELNAEKASTNSETNRGESEKKRNLGELSRTTSEDNEVFGEADANQNNGTSSQDTAVTDSKRTADPKNAWQDAHPADPGSRPHLIRLFSRDAPGREDNTFKDRPSESDELQTIQEDSAATSESLDVMASQKRPSQRHGSKYLATASTMDHARHGFLPRHRDTGILDSIGRFFGGDRGAPKRGSGKDSHHPARTAHYGSLPQKSHGRTQDENPVVHFFKNIVTPRTPPPSQGKGRGLSLSRFSWGAEGQRPGFGYGGRASDYKSAHKGFKGVDAQGTLSKIFKLGGRDSRSGSPMARR
modifications: full-length
notes: full-length myelin basic protein of earlier studies
For the molecule B1, the Kd in words entry was “low μM range”.
